Results published in patent US20200270325A1 (Merck Sharp & Dohme, published 2020).
Numbered stars: 1 amine (or outer) side, 2 acyl side, 3 side chain; on linkers, the order of the positions; unused ones are H or OH. Square brackets hold non-standard residues; d marks the D form. Side chains are listed from the residue outwards. Ends that are not written are not given here. * marks the point of attachment. Phe(4-CH2NH2) = NCc1ccc(C[C@H](N)C(=O)O)cc1; C18 diacid = O=C(O)CCCCCCCCCCCCCCCCC(=O)*; αMeW = C[C@](N)(Cc1c[nH]c2ccccc12)C(=O)O; C16 diacid = O=C(O)CCCCCCCCCCCCCCC(=O)*; γGlu = O=C(O)[C@H](CCC(=O)[*:2])N[*:1]; Met(O2) = CS(=O)(=O)CC[C@H](N)C(=O)O; αMeD = C[C@](N)(CC(=O)O)C(=O)O; AEEA = NCCOCCOCC(=O)O; Aib = CC(C)(N)C(=O)O

What was measured:
[1] = biological target: human GLP-1 receptor (GLP1R) (human, UniProt P43220 24-463); test: cell-based or functional assay
[2] = biological target: human Glucagon receptor (GCGR) (human, UniProt P47871 26-477); test: cell-based or functional assay
Sequence of human Glucagon receptor (GCGR) (P47871 26-477): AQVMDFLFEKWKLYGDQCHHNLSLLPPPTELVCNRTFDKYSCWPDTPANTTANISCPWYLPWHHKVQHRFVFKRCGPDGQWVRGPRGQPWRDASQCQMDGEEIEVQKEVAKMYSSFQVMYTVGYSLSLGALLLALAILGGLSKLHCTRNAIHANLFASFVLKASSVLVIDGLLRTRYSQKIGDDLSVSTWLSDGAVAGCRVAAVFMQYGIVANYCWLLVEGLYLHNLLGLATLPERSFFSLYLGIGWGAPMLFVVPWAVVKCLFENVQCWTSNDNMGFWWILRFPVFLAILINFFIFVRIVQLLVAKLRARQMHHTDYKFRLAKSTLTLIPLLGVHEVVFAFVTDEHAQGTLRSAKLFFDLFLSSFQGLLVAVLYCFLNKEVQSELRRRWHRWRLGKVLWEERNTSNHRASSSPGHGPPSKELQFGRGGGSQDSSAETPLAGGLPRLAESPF

Row | Binder | GLP1R EC50 human [1] | GCGR EC50 human [2]
1 | H[Aib]QGTFTSD[Phe(4-CH2NH2)]([AEEA-AEEA-γGlu-C18 diacid])SKYLDARAAQDFVQWL[Met(O2)][αMeD]T-NH2 (N-terminus assumed; SMILES CC(C)C[C@H](NC(=O)[C@H](Cc1ccc(O)cc1)NC(=O)[C@H](CCCCN)NC(=O)[C@H](CO)NC(=O)[C@H](Cc1ccc(CNC(=O)COCCOCCNC(=O)COCCOCCNC(=O)CC[C@H](NC(=O)CCCCCCCCCCCCCCCCC(=O)O)C(=O)O)cc1)NC(=O)[C@H](CC(=O)O)NC(=O)[C@H](CO)NC(=O)[C@@H](NC(=O)[C@H](Cc1ccccc1)NC(=O)[C@@H](NC(=O)CNC(=O)[C@H](CCC(N)=O)NC(=O)C(C)(C)NC(=O)[C@@H](N)Cc1c[nH]cn1)[C@@H](C)O)[C@@H](C)O)C(=O)N[C@@H](CC(=O)O)C(=O)N[C@@H](C)C(=O)N[C@@H](CCCNC(=N)N)C(=O)N[C@@H](C)C(=O)N[C@@H](C)C(=O)N[C@@H](CCC(N)=O)C(=O)N[C@@H](CC(=O)O)C(=O)N[C@@H](Cc1ccccc1)C(=O)N[C@H](C(=O)N[C@@H](CCC(N)=O)C(=O)N[C@@H](Cc1c[nH]c2ccccc12)C(=O)N[C@@H](CC(C)C)C(=O)N[C@@H](CCS(C)(=O)=O)C(=O)N[C@@](C)(CC(=O)O)C(=O)N[C@H](C(N)=O)[C@@H](C)O)C(C)C) [TP624] | 0.89 nM | 1 nM
2 | H[Aib]QGTFTSDYSKYLDARAAK([AEEA-γGlu-C20‑OH])DFVQWL[Met(O2)][αMeD]T-NH2 [TP629] | 2.23 nM | 3.17 nM
3 | H[Aib]QGTFTSD[Phe(4-CH2NH2)]([AEEA-AEEA-γGlu-C18 diacid])SKYLDARAAQDFVQ[αMeW]L[Met(O2)]DT-NH2 (N-terminus assumed; SMILES CC(C)C[C@H](NC(=O)[C@H](Cc1ccc(O)cc1)NC(=O)[C@H](CCCCN)NC(=O)[C@H](CO)NC(=O)[C@H](Cc1ccc(CNC(=O)COCCOCCNC(=O)COCCOCCNC(=O)CC[C@H](NC(=O)CCCCCCCCCCCCCCCCC(=O)O)C(=O)O)cc1)NC(=O)[C@H](CC(=O)O)NC(=O)[C@H](CO)NC(=O)[C@@H](NC(=O)[C@H](Cc1ccccc1)NC(=O)[C@@H](NC(=O)CNC(=O)[C@H](CCC(N)=O)NC(=O)C(C)(C)NC(=O)[C@@H](N)Cc1c[nH]cn1)[C@@H](C)O)[C@@H](C)O)C(=O)N[C@@H](CC(=O)O)C(=O)N[C@@H](C)C(=O)N[C@@H](CCCNC(=N)N)C(=O)N[C@@H](C)C(=O)N[C@@H](C)C(=O)N[C@@H](CCC(N)=O)C(=O)N[C@@H](CC(=O)O)C(=O)N[C@@H](Cc1ccccc1)C(=O)N[C@H](C(=O)N[C@@H](CCC(N)=O)C(=O)N[C@@](C)(Cc1c[nH]c2ccccc12)C(=O)N[C@@H](CC(C)C)C(=O)N[C@@H](CCS(C)(=O)=O)C(=O)N[C@@H](CC(=O)O)C(=O)N[C@H](C(N)=O)[C@@H](C)O)C(C)C) [TP625] | 0.39 nM | 1.3 nM
4 | H[Aib]QGTFTSDYSKYLDARAAK([AEEA-γGlu-C16 diacid])DFVQWL[Met(O2)][αMeD]T-NH2 (N-terminus assumed; SMILES CC(C)C[C@H](NC(=O)[C@H](Cc1ccc(O)cc1)NC(=O)[C@H](CCCCN)NC(=O)[C@H](CO)NC(=O)[C@H](Cc1ccc(O)cc1)NC(=O)[C@H](CC(=O)O)NC(=O)[C@H](CO)NC(=O)[C@@H](NC(=O)[C@H](Cc1ccccc1)NC(=O)[C@@H](NC(=O)CNC(=O)[C@H](CCC(N)=O)NC(=O)C(C)(C)NC(=O)[C@@H](N)Cc1c[nH]cn1)[C@@H](C)O)[C@@H](C)O)C(=O)N[C@@H](CC(=O)O)C(=O)N[C@@H](C)C(=O)N[C@@H](CCCNC(=N)N)C(=O)N[C@@H](C)C(=O)N[C@@H](C)C(=O)N[C@@H](CCCCNC(=O)COCCOCCNC(=O)CC[C@H](NC(=O)CCCCCCCCCCCCCCC(=O)O)C(=O)O)C(=O)N[C@@H](CC(=O)O)C(=O)N[C@@H](Cc1ccccc1)C(=O)N[C@H](C(=O)N[C@@H](CCC(N)=O)C(=O)N[C@@H](Cc1c[nH]c2ccccc12)C(=O)N[C@@H](CC(C)C)C(=O)N[C@@H](CCS(C)(=O)=O)C(=O)N[C@@](C)(CC(=O)O)C(=O)N[C@H](C(N)=O)[C@@H](C)O)C(C)C) [TP627] | 0.25 nM | 0.14 nM
5 | H[Aib]QGTFTSDYSKYLDARAAK([AEEA-γGlu-C18 diacid])DFVQWL[Met(O2)]DT-NH2 (N-terminus assumed; SMILES CC(C)C[C@H](NC(=O)[C@H](Cc1ccc(O)cc1)NC(=O)[C@H](CCCCN)NC(=O)[C@H](CO)NC(=O)[C@H](Cc1ccc(O)cc1)NC(=O)[C@H](CC(=O)O)NC(=O)[C@H](CO)NC(=O)[C@@H](NC(=O)[C@H](Cc1ccccc1)NC(=O)[C@@H](NC(=O)CNC(=O)[C@H](CCC(N)=O)NC(=O)C(C)(C)NC(=O)[C@@H](N)Cc1c[nH]cn1)[C@@H](C)O)[C@@H](C)O)C(=O)N[C@@H](CC(=O)O)C(=O)N[C@@H](C)C(=O)N[C@@H](CCCNC(=N)N)C(=O)N[C@@H](C)C(=O)N[C@@H](C)C(=O)N[C@@H](CCCCNC(=O)COCCOCCNC(=O)CC[C@H](NC(=O)CCCCCCCCCCCCCCCCC(=O)O)C(=O)O)C(=O)N[C@@H](CC(=O)O)C(=O)N[C@@H](Cc1ccccc1)C(=O)N[C@H](C(=O)N[C@@H](CCC(N)=O)C(=O)N[C@@H](Cc1c[nH]c2ccccc12)C(=O)N[C@@H](CC(C)C)C(=O)N[C@@H](CCS(C)(=O)=O)C(=O)N[C@@H](CC(=O)O)C(=O)N[C@H](C(N)=O)[C@@H](C)O)C(C)C) [TP626] | 0.77 nM | 0.39 nM
